Here are results for 36 molecules from patent US20240016931A1 (JIANGSU HENGRUI PHARMACEUTICALS, published 2024).

Usually EC50 stands for the concentration needed to bring the measured effect to its halfway point. Usually IC50 stands for the concentration at which inhibition is half-maximal. The Kd is the equilibrium constant for the complex coming apart.

Substitutions are numbered along the chain they refer to.

To fix the notation:
B1: Ch199 (antibody, human IgG1, kappa, V domains shown)
VH: QVQLQQSGPQLVRPGASVKISCKASGYSFTTYWMHWVKQRPGQGLEWIGMIDPSDSETTLIQKFKDKATLTVDKSSSTAYMQLSSPTSEDSAVYYCARTLDGYYDYWGQGTTLTVSS
VL: DIQMTQSPASLSASVGETVTITCRASENIYSYLAWYQQKQGKSPQLLVYFAKTLAEGVPSRFSGSVSGTQFSLKINSLQPEDFGSYYCQHHYGTPWTFGGGTKLEIKR
notes: murine variable regions on human IgG1-YTE / kappa; also called Chi 99; chimeric antibody corresponding to mab199
B2: hu199-36 (antibody, human IgG1, kappa, V domains shown)
VH: EVQLVQSGAEVKKPGASVKVSCKASGYTFTTYWMHWVKQAPGQGLEWMGMIDPSDSETTLIQKFKDKVTLTVDKSTSTAYMELSSLRSEDTAVYYCARTLDGYYDYWGQGTTVTVSS
VL: B1 VL with A9S, E17D, T18R, Q40P, S72T, K74T, N76S, G84A, S85T, L104V
notes: IgG1-YTE, kappa
B3: hu199-01 (antibody, human IgG1, kappa, V domains shown)
VH: B2 VH with K38R, K67R, L70M
VL: DIQMTQSPSSLSASVGDRVTITCRASENIYSYLAWYQQKPGKAPKLLIYFAKTLAEGVPSRFSGSGSGTDFTLTISSLQPEDFATYYCQHHYGTPWTFGGGTKVEIKR
notes: IgG1-YTE, kappa
B4: hu199-28 (antibody, human IgG1, kappa, V domains shown)
VH: B2 VH with L70M
VL: B3 VL with G66V
notes: IgG1-YTE, kappa
B5: hu199-22 (antibody, human IgG1, kappa, V domains shown)
VH: B2 VH with M48I, V68A
VL: B3 VL with G66V
notes: IgG1-YTE, kappa
B6: hu199-10 (antibody, human IgG1, kappa, V domains shown)
VH: B2 VH with K38R, K67R
VL: B3 VL with G66V
notes: IgG1-YTE, kappa
B7: hu199-14 (antibody, human IgG1, kappa, V domains shown)
VH: B2 VH with K38R, M48I, K67R, V68A
VL: B3 VL with I48V
notes: IgG1-YTE, kappa
B8: hu199-32 (antibody, human IgG1, kappa, V domains shown)
VH: B2 VH
VL: B3 VL with I48V
notes: IgG1-YTE, kappa
B9: hu199-12 (antibody, human IgG1, kappa, V domains shown)
VH: B2 VH with K38R, K67R
VL: B3 VL with A43S, K45Q, I48V, G66V, D70Q
notes: IgG1-YTE, kappa
B10: hu199-26 (antibody, human IgG1, kappa, V domains shown)
VH: B2 VH with L70M
VL: B3 VL with I48V
notes: IgG1-YTE, kappa
B11: hu199-19 (antibody, human IgG1, kappa, V domains shown)
VH: B2 VH with M48I, V68A
VL: B3 VL
notes: IgG1-YTE, kappa
B12: hu199-21 (antibody, human IgG1, kappa, V domains shown)
VH: B2 VH with M48I, V68A
VL: B3 VL with A43S, K45Q, I48V, D70Q
notes: IgG1-YTE, kappa
B13: hu199-31 (antibody, human IgG1, kappa, V domains shown)
VH: B2 VH
VL: B3 VL
notes: IgG1-YTE, kappa
B14: hu199-11 (antibody, human IgG1, kappa, V domains shown)
VH: B2 VH with K38R, K67R
VL: B3 VL with I48V, G66V
notes: IgG1-YTE, kappa
B15: hu199-30 (antibody, human IgG1, kappa, V domains shown)
VH: B2 VH with L70M
VL: B3 VL with A43S, K45Q, I48V, G66V, D70Q
notes: IgG1-YTE, kappa
B16: hu199-35 (antibody, human IgG1, kappa, V domains shown)
VH: B2 VH
VL: B3 VL with I48V, G66V
notes: IgG1-YTE, kappa
B17: hu199-04 (antibody, human IgG1, kappa, V domains shown)
VH: B2 VH with K38R, K67R, L70M
VL: B3 VL with G66V
notes: IgG1-YTE, kappa
B18: hu199-15 (antibody, human IgG1, kappa, V domains shown)
VH: B2 VH with K38R, M48I, K67R, V68A
VL: B3 VL with A43S, K45Q, I48V, D70Q
notes: IgG1-YTE, kappa
B19: hu199-06 (antibody, human IgG1, kappa, V domains shown)
VH: B2 VH with K38R, K67R, L70M
VL: B3 VL with A43S, K45Q, I48V, G66V, D70Q
notes: IgG1-YTE, kappa
B20: hu199-03 (antibody, human IgG1, kappa, V domains shown)
VH: B2 VH with K38R, K67R, L70M
VL: B3 VL with A43S, K45Q, I48V, D70Q
notes: IgG1-YTE, kappa
B21: hu199-18 (antibody, human IgG1, kappa, V domains shown)
VH: B2 VH with K38R, M48I, K67R, V68A
VL: B3 VL with A43S, K45Q, I48V, G66V, D70Q
notes: IgG1-YTE, kappa
B22: hu199-20 (antibody, human IgG1, kappa, V domains shown)
VH: B2 VH with M48I, V68A
VL: B3 VL with I48V
notes: IgG1-YTE, kappa
B23: hu199-07 (antibody, human IgG1, kappa, V domains shown)
VH: B2 VH with K38R, K67R
VL: B3 VL
notes: IgG1-YTE, kappa
B24: hu199-17 (antibody, human IgG1, kappa, V domains shown)
VH: B2 VH with K38R, M48I, K67R, V68A
VL: B3 VL with I48V, G66V
notes: IgG1-YTE, kappa
B25: hu199-05 (antibody, human IgG1, kappa, V domains shown)
VH: B2 VH with K38R, K67R, L70M
VL: B3 VL with I48V, G66V
notes: IgG1-YTE, kappa
B26: hu199-24 (antibody, human IgG1, kappa, V domains shown)
VH: B2 VH with M48I, V68A
VL: B3 VL with A43S, K45Q, I48V, G66V, D70Q
notes: IgG1-YTE, kappa
B27: hu199-25 (antibody, human IgG1, kappa, V domains shown)
VH: B2 VH with L70M
VL: B3 VL
notes: IgG1-YTE, kappa
B28: hu199-27 (antibody, human IgG1, kappa, V domains shown)
VH: B2 VH with L70M
VL: B3 VL with A43S, K45Q, I48V, D70Q
notes: IgG1-YTE, kappa
B29: hu199-16 (antibody, human IgG1, kappa, V domains shown)
VH: B2 VH with K38R, M48I, K67R, V68A
VL: B3 VL with G66V
notes: IgG1-YTE, kappa
B30: hu199-23 (antibody, human IgG1, kappa, V domains shown)
VH: B2 VH with M48I, V68A
VL: B3 VL with I48V, G66V
notes: IgG1-YTE, kappa
B31: hu199-34 (antibody, human IgG1, kappa, V domains shown)
VH: B2 VH
VL: B3 VL with G66V
notes: IgG1-YTE, kappa
B32: hu199-09 (antibody, human IgG1, kappa, V domains shown)
VH: B2 VH with K38R, K67R
VL: B3 VL with A43S, K45Q, I48V, D70Q
notes: IgG1-YTE, kappa
B33: hu199-33 (antibody, human IgG1, kappa, V domains shown)
VH: B2 VH
VL: B3 VL with A43S, K45Q, I48V, D70Q
notes: IgG1-YTE, kappa
B34: hu199-13 (antibody, human IgG1, kappa, V domains shown)
VH: B2 VH with K38R, M48I, K67R, V68A
VL: B3 VL
notes: IgG1-YTE, kappa
B35: hu199-02 (antibody, human IgG1, kappa, V domains shown)
VH: B2 VH with K38R, K67R, L70M
VL: B3 VL with I48V
notes: IgG1-YTE, kappa
B36: hu199-29 (antibody, human IgG1, kappa, V domains shown)
VH: B2 VH with L70M
VL: B3 VL with I48V, G66V
notes: IgG1-YTE, kappa

In one experiment the target is T1, His-tagged human TSLP antigen (huTSLP-his) (human).
T1 construct: Secreted from HEK293E and purified on nickel; whole entry named; also called Human TSLP-his
Put plainly: ELISA, coated huTSLP-his.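 Also: binding of antibodies to plate-bound TSLP read as absorbance at 450 nm after TMB colour development, EC50 derived from binding curves.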 On the technique in general: An ELISA detects its analyte on a solid surface through an enzyme-linked reagent.
B1 registered an EC50 of 0.516 nM.

Another experiment concerns the target T2, Fc-tagged human TSLP antigen (huTSLP-Fc) (human, biotin-labeled in the blocking assays). Nature of the experiment: cell-based or functional assay.
As to B2, the “IC50 (nM), inhibition of TSLP-induced proliferation of BaF3 cells overexpressing TSLPR/IL-7R” value is 0.477 nM.

The target of another experiment is T2, Fc-tagged human TSLP antigen (huTSLP-Fc). Put plainly: competition FACS: biotin-TSLP-Fc binding to CHOK1-TSLPR/IL-7R cells.
In turn, B2 registered an IC50 of 0.227 nM.

For another experiment the target is unchanged. Nature of the experiment: competition ELISA: blocks TSLP binding to TSLP receptor.
With B3, the IC50 turned out to be 0.191 nM.
On the same count and under the same terms, the figure for B4 is 0.462 nM; for B5 it is 0.345 nM; for B6 it is 0.391 nM.
Same read-out and setting: the figure for B7 is 0.311 nM.
In turn, B8 had an IC50 of 0.287 nM.
Same read-out and setting: the figure for B9 is 0.37 nM; for B10 it is 0.365 nM; for B11 it is 0.658 nM.
Still for that read-out and setting: the figure for B12 is 0.535 nM.
On the same count and under the same terms, the figure for B13 is 0.304 nM; for B14 it is 0.365 nM; for B15 it is 0.349 nM.
B16 gave an IC50 of 0.485 nM.
The same measure, in the same setting: the same measure for B17: 0.424 nM; for B18: 0.287 nM.
On the same count and under the same terms, the figure for B19 is 0.381 nM; for B20 it is 0.208 nM.
Molecule B21 returned a half-maximal inhibitory concentration (IC50) of 0.481 nM.
Turning to B22, the IC50 stood at 0.4 nM.
Same read-out and setting: the same measure for B23: 0.283 nM; for B24: 0.611 nM.
The same measure, in the same setting: the figure for B25 is 0.473 nM; for B26 it is 0.496 nM; for B27 it is 0.246 nM.
On the same count and under the same terms, the figure for B28 is 0.354 nM; for B29 it is 0.737 nM; for B30 it is 0.337 nM.
In turn, B31 gave an IC50 of 0.711 nM.
Same read-out and setting: the figure for B32 is 0.273 nM; for B33 it is 0.205 nM; for B34 it is 0.239 nM.
Same read-out and setting: the same measure for B2: 0.727 nM; for B35: 0.219 nM; for B36: 0.554 nM.
With B1, the IC50 is 0.427 nM.

The target in a further experiment is T1, His-tagged human TSLP antigen …. Nature of the experiment: Biacore T200, antibody captured on Protein A chip, antigen in flow, 1:1 Langmuir. On the technique in general: Surface plasmon resonance follows binding to a sensor surface in real time, without labels.
The molecule B2 had a Kd of 0.0105 nM.

The target of another experiment is T3, His-tagged cynomolgus monkey TSLP antigen (cynoTSLP-His) (cynomolgus monkey).
T3 construct: whole entry named
T3 chain: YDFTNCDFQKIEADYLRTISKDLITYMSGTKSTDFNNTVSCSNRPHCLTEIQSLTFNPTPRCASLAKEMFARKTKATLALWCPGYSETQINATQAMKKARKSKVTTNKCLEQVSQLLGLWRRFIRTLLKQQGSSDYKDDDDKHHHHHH
Described as above.
Regarding B2, the dissociation constant (Kd) came out at 0.0172 nM.

The target of another experiment is T2, Fc-tagged human TSLP antigen (huTSLP-Fc). Nature of the experiment: competition ELISA: biotin-huTSLP-Fc binding to coated human-TSLPR-Fc-ECD.
B2 yielded an IC50 of 0.569 nM.
